The nature of the series: protein stability index of a GFP-peptide fusion (GPS, HEK-293T) (PSI 1-6); higher = more stable.
The mark [1] stands for this setting: treatment: DMSO, c terminus: a fixed tail appended.
[2] abbreviates: treatment: MLN4924 1 uM, 8 h, c terminus: a fixed tail appended.
[3] abbreviates: treatment: DMSO, c terminus: native.
Where [4] appears, read: treatment: MLN4924 1 uM, 8 h, c terminus: native.

± gives the standard deviation.
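Note: 24-mer peptide tiles fused after GFP, lentivirally expressed, FACS-sorted into six equal bins by GFP/DsRed ratio, decoded by Illumina sequencing, PSI is the read-weighted mean bin number.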

Take PNLTYVYPHTRIQSLVSILRTTVH [CLCN6]: the protein stability index reads like this: under setting [1], 2.38 ± 0.51; under setting [2], 2.23 ± 0.17.

In the case of PNVIDNFLCDLYPLLKLACTNTYV [OR4A15], the protein stability index reads like this: under setting [1], 2.87 ± 0.2; under setting [2], 3.12 ± 0.29.

Take PPGNVYWPLRGKREAMLEMLLQHQ [SPAG8]: the protein stability index turned out to be 2.52 ± 0.055 under setting [1] and 2.65 ± 0.3 under setting [2].

On to PQAFPMSRLWDSRLRHYLGSRYDA [DNAAF3], for which the protein stability index stood at 2.2 ± 0.47 under setting [1] and 2.51 ± 0.35 under setting [2].

As for PQEPRPPKRATKPKKAPKREKSAP [CPXM2], the protein stability index is, setting by setting: under setting [1], 5.14 ± 0.46; under setting [2], 5.42 ± 0.18.

In the case of PQKASAPAADPPRYTFAPSVSLNK [PDLIM7], the protein stability index under setting [1] amounted to 4.33 ± 0.19 and the protein stability index under setting [2] came to 4.32 ± 0.22.

With PQVFVSNKINAGMYILSPAVLRRI [GMPPB], the protein stability index is, setting by setting: under setting [1], 2.21 ± 0.39; under setting [2], 2.06 ± 0.26.

With PRCPGSVNEKLPQREGTGKTVSLQ [SMOC2], the protein stability index stood at 5.03 ± 0.14 under setting [1] and 5.03 ± 0.54 under setting [2].

For the sequence PRMNEVYTRLGEMNNAVRNLQELL [CEP70], the protein stability index by setting is: under setting [1], 3.78 ± 0.18; under setting [2], 3.86 ± 0.23.

On to PSAELVQTRMAVSLTAAETLALQG [ZNF232], for which the protein stability index reads like this: under setting [1], 3.45 ± 0.35; under setting [2], 3.23 ± 0.23.

As to PSLFHLNTLKRENSSPRVMQRKQS [DLC1], the protein stability index is, setting by setting: under setting [1], 3.92 ± 0.16; under setting [2], 4.2 ± 0.15.

With PSPDMECADVPLLTPSSKEMMSQA [ETS1], the protein stability index runs as follows: under setting [1], 5.15 ± 0.25; under setting [2], 5.2 ± 0.11.

Regarding PSVFDGLGDLLMPTMAPAGQPAPV [SNAP91], the protein stability index was determined as 3.54 ± 0.25 under setting [1] and 3.57 ± 0.2 under setting [2].

As to PSVRSSKDGKLLAATLLLALLSCC [TNFSF13B], the protein stability index reads like this: under setting [1], 2.73 ± 0.66; under setting [2], 2.81 ± 0.85.

Take PTEGAGSPAKASQASKLRASKEEK [FBF1]: the protein stability index runs as follows: under setting [1], 5.41 ± 0.21; under setting [2], 5.43 ± 0.28.

As to PVAQSTDGIRGKVGHARGLHAWQI [SPSB4], the protein stability index was determined as 2.68 ± 0.37 under setting [1] and 2.84 ± 0.29 under setting [2].

PVDLWACGVILYILLVGYPPFWDE [CAMK2A]: the protein stability index runs as follows: under setting [1], 3.08 ± 0.1; under setting [2], 2.56 ± 0.096.

As for PVPAFQSDGTDEPESKEPVEKEEE [SMG5], the protein stability index is, setting by setting: under setting [1], 5.57 ± 0.24; under setting [2], 5.56 ± 0.24.

Consider PVYRRDCHEEVYAGSHQYPGRGVY [ACBD3], for which the protein stability index is 2.89 ± 0.29 under setting [1] and 3.03 ± 0.2 under setting [2].

Take PWDESGSGCLPPEPLFEAGDATLA [FOXJ1]: the protein stability index runs as follows: under setting [1], 5.07 ± 0.39; under setting [2], 5.08 ± 0.23.

As for PWSLFDVLVEKYGWPHEDAAQFTD [SRPK2], the protein stability index amounted to 2.61 ± 0.28 under setting [1] and 2.88 ± 0.51 under setting [2].

Take PYDLHLRSQSLTMQDELNAVFHN [NEUROD6]: the protein stability index under setting [3] is 3.44 ± 0.22 and the protein stability index under setting [4] was 3.71 ± 0.15.

Consider PYGPPPDAVQTSLMDEGASSEKKR [RBBP5], for which the protein stability index is, setting by setting: under setting [1], 5.37 ± 0.25; under setting [2], 5.463 ± 0.047.

On to QAHGSEGLTFQGLLPLTELSVCPL [PLEKHN1], for which the protein stability index runs as follows: under setting [1], 3.08 ± 0.29; under setting [2], 3.05 ± 0.19.

QAIFHAVDQYLALPDVSLGRYAYV [MCOLN1] came in with a protein stability index under setting [1] of 3.16 ± 0.59 and a protein stability index under setting [2] of 2.68 ± 0.31.

With QAKQEMNESRRQIQSLTCEVDGLR [PRPH], the protein stability index worked out at 4.55 ± 0.37 under setting [1] and 4.78 ± 0.18 under setting [2].

Take QALLIRERILGPSHPDTSYYIRYR [FEM1A]: the protein stability index reads like this: under setting [1], 2.31 ± 0.2; under setting [2], 2.56 ± 0.33.

As for QCLDKTNESALVKEKELSIELANI [MTUS2], the protein stability index is, setting by setting: under setting [1], 4.79 ± 0.27; under setting [2], 4.77 ± 0.22.

Regarding QDIAQEISEAFSQRVGFGDDFDED [CHMP4C], the protein stability index by setting is: under setting [1], 5.62 ± 0.21; under setting [2], 5.5 ± 0.18.

Turning to QDTEVFSWSDNERSSSRINIPERA [FAM104B], the protein stability index reads like this: under setting [1], 4.62 ± 0.094; under setting [2], 4.53 ± 0.067.

As to QELLKRTIMQAVSQIRLNREHKET [TEKT4], the protein stability index was found to be 2.63 ± 0.17 under setting [1] and 2.79 ± 0.36 under setting [2].

On to QFIANLDQLNDGQDFAKDLLKTLY [PSD2], for which the protein stability index under setting [1] stood at 2.21 ± 0.43 and the protein stability index under setting [2] came to 2.42 ± 0.28.

Turning to QFYMFGWTHVTLLIVVTQSHLVIH [CDS2], the protein stability index was 2.85 ± 0.37 under setting [1] and 3.31 ± 0.59 under setting [2].

For QGDLASLRAELQGHHAEKLPAGAG [TNFSF13B], the protein stability index was found to be 4.72 ± 0.2 under setting [1] and 4.76 ± 0.18 under setting [2].

QGGELVVAYPYDLVRSPWKTQEHT [CPXM2] displayed a protein stability index under setting [1] of 2.58 ± 0.21 and a protein stability index under setting [2] of 2.15 ± 0.25.

QGGEYLPKPEPPQLVLAYDYSREV [FEM1A]: the protein stability index under setting [1] was found to be 3.93 ± 0.23 and the protein stability index under setting [2] was 4.12 ± 0.28.

As for QGPQGREGLAFLVSCPEGRADCAS [PWWP2B], the protein stability index runs as follows: under setting [1], 3.77 ± 0.33; under setting [2], 3.95 ± 0.26.

For the sequence QHLKSKALRERWLLEGTPSSASEG [PALM], the protein stability index turned out to be 4.25 ± 0.13 under setting [1] and 4.33 ± 0.2 under setting [2].

On to QICTVKDIKAEPQPLSPASSSYSV [ATF6], for which the protein stability index was 4.16 ± 0.26 under setting [1] and 3.98 ± 0.47 under setting [2].

With QILELLVLEQFLTILPQEIQSRVQ [ZNF263], the protein stability index runs as follows: under setting [1], 3.06 ± 0.47; under setting [2], 3.43 ± 0.49.

For QIMKEGKATASEAVDCKWYIRAPP [NETO1], the protein stability index under setting [1] was determined as 3.24 ± 0.086 and the protein stability index under setting [2] stood at 3.24 ± 0.2.

Consider QIQKYTDCLQFYVNSTLKELRRLF [RTN1], for which the protein stability index reads like this: under setting [1], 2.73 ± 0.37; under setting [2], 2.55 ± 0.31.

With QKQLEQTLQQFNIKLRPPGAEKPS [ARFIP2], the protein stability index by setting is: under setting [1], 3.92 ± 0.098; under setting [2], 4.07 ± 0.19.

With QLDKNSEVYQEVQAMFDTLGIPKS [FAM98B], the protein stability index was 3.11 ± 0.69 under setting [1] and 3.66 ± 0.59 under setting [2].

In the case of QLSTPHAVGVLLLGLVGYYIFRVA [DHCR7], the protein stability index under setting [1] worked out at 2.91 ± 0.44 and the protein stability index under setting [2] was 2.94 ± 0.35.

QMLLNVEANSAKVQEDLEAEFQSL [FSD1]: the protein stability index runs as follows: under setting [1], 4.92 ± 0.21; under setting [2], 4.96 ± 0.2.

QMPPVIVETARSHQRSSSESYTQS [PI4K2A]: the protein stability index runs as follows: under setting [1], 4.6 ± 0.28; under setting [2], 4.72 ± 0.16.

The sequence QPAGNRRGQARRLAPNFRWAIPNR [BEX3] returned a protein stability index under setting [1] of 3.89 ± 0.14 and a protein stability index under setting [2] of 3.75 ± 0.32.

For QPPEESQPPQSQAQVPPAAPHHHH [PLK2], the protein stability index by setting is: under setting [1], 5.41 ± 0.11; under setting [2], 5.43 ± 0.18.

As for QQAGLLVTGEKEEPSRSASEADSE [PPEF2], the protein stability index stood at 5.613 ± 0.041 under setting [1] and 5.56 ± 0.16 under setting [2].

QQENKVLKIELETYKLKCKALQEE [CCDC6]: the protein stability index reads like this: under setting [1], 4.28 ± 0.12; under setting [2], 4.27 ± 0.14.

For QQIAMDPEEVKSLDSNGAGEKSEN [BCL2L13], the protein stability index by setting is: under setting [1], 5.6 ± 0.45; under setting [2], 5.63 ± 0.3.

For the sequence QQLLPPFPSLHQSLPQNQCYMATT [EHMT1], the protein stability index runs as follows: under setting [1], 3.29 ± 0.13; under setting [2], 3.16 ± 0.17.

As for QQNEDLRRMAESLRIPEGPIDQGP [FUT8], the protein stability index runs as follows: under setting [1], 4.96 ± 0.23; under setting [2], 4.94 ± 0.17.

With QQSDLGQYVTFLRSFSDKQKISLL [ALG2], the protein stability index under setting [1] was 2.22 ± 0.24 and the protein stability index under setting [2] came out at 2.29 ± 0.23.

Consider QQVKKLEKALKKNVKLQELINHKK [CEP70], for which the protein stability index is, setting by setting: under setting [1], 2.6 ± 0.28; under setting [2], 2.67 ± 0.41.

In the case of QRLVEALEENELTSLAEDLLGLTD [TRADD], the protein stability index by setting is: under setting [1], 4.28 ± 0.14; under setting [2], 4.28 ± 0.17.

For QRQAPGPARDYSQYYRTIEELQNK [KRT17], the protein stability index was determined as 4.07 ± 0.15 under setting [1] and 4.12 ± 0.063 under setting [2].

The sequence QRQQLPVTFGNKQKVLGKALSLIR [BTBD1] came in with a protein stability index under setting [1] of 2.81 ± 1 and a protein stability index under setting [2] of 2.2 ± 0.41.

With QSFGVASASSIKQILLEWCRSKTL [SMTNL2], the protein stability index amounted to 2.41 ± 0.27 under setting [1] and 2.15 ± 0.39 under setting [2].

On to QSLDQEILLKVKTEIEEELKSLDK [BCL2L13], for which the protein stability index is 4.51 ± 0.42 under setting [1] and 4.93 ± 0.24 under setting [2].

In turn, QSSKRSSRSVEDDKEGHLVCRIGD [CLK3] yielded a protein stability index under setting [1] of 5.3 ± 0.43 and a protein stability index under setting [2] of 5.17 ± 0.25.

Regarding QVATSPDFDGKLKDIAGEFKEQLQ [ATL3], the protein stability index was 4.34 ± 0.35 under setting [1] and 4.32 ± 0.38 under setting [2].

Take QVEVDAQQCMLEILDTAGTEQFTA [RAP1B]: the protein stability index came out at 4.54 ± 0.12 under setting [1] and 4.59 ± 0.16 under setting [2].

Take QVPEEMSRCRNSYTEQELKPLTLE [DLC1]: the protein stability index amounted to 4.48 ± 0.26 under setting [1] and 4.46 ± 0.29 under setting [2].

In the case of QYLMATFVHVYITSFIRGPNPSKV [CDS1], the protein stability index runs as follows: under setting [1], 3.12 ± 0.17; under setting [2], 3.2 ± 0.34.

QYPNPLPVLSGAELEKAHLALIDY [VPS39]: the protein stability index came to 3.55 ± 0.24 under setting [1] and 3.58 ± 0.31 under setting [2].

For QYWPSRGTETHGLVQVTLLDTVEL [PTPRD], the protein stability index under setting [1] turned out to be 2.13 ± 0.17 and the protein stability index under setting [2] worked out at 2.23 ± 0.49.

As for RADEPQWSLYPSDSQVSEEVKTRH [CHGB], the protein stability index by setting is: under setting [1], 5.18 ± 0.068; under setting [2], 5.18 ± 0.064.

Consider RAGKMLMTLPLLRQTSTKAVQHFY [ESRRG], for which the protein stability index by setting is: under setting [1], 2.28 ± 0.31; under setting [2], 2.16 ± 0.37.

RAQEREQIKALNNKFASFIDKVRF [KRT71]: the protein stability index is, setting by setting: under setting [1], 2.1 ± 0.11; under setting [2], 2.2 ± 0.3.

Regarding RDRVGHKSIPMRNLRARPAKCLS [SERPINB5], the protein stability index stood at 2.34 ± 0.23 under setting [3] and 2.48 ± 0.24 under setting [4].

(Values after the supplement of paper PMC10567573.)
